Measurements from US20250243260A1 (ALPINE IMMUNE SCIENCES, published 2025).

How the values were obtained:
[1] = biological target: T1, human PD-L1 (human, UniProt Q9NZQ7 19-290); experiment: flow cytometry, SCC152 cells transduced with human PD-L1, anti-human Fc detection
T1 construct: whole, on cells
Protocol: (§1) Binding affinity to CD28 was determined using primary human T cells which endogenously express CD28. Binding to PD-L1 was determined using SCC152 cells transduced with human PD-L1. Binding to CTLA-4 was measured using Chinese hamster ovary (CHO) cells stably transduced to express human CTLA-4.
(§2) For staining and analysis by flow cytometry, 75,000 human T cells, SCC152/PD-L1 cells, or CHO/CTLA-4 cells were plated in 96-well round-bottom plates. Cells were spun down and resuspended in staining buffer (PBS (phosphate buffered saline), 1% BSA (bovine serum albumin), 1 mM EDTA, and 0.1% sodium azide) for 20 minutes to block non-specific binding. Afterwards, cells were centrifuged, stain buffer aspirated, and then resuspended in 50 μL of a 1:5 serial dilution of each CD80-Fc candidate variant starting at 100 nM ending at 0.8 nM. Primary staining was performed on ice for 60 minutes, before washing cells in […] staining buffer three times. PE-conjugated anti-human Fc (Jackson ImmunoResearch, USA) was diluted 1:250 in 50 μL staining buffer and added to cells and incubated another 30 minutes at 4° C. Cells were washed two times in 150 μL stain buffer and then fixed in 2% formaldehyde/PBS for 5 minutes at room temperature. Samples were analyzed CytoFLEX LX flow cytometer (Beckman Coulter, USA). Median Fluorescence Intensity (MFI) was calculated for each cell type using the CytExpert software from Beckman Coulter.
(§3) Binding assays were carried out to assess the specificity and affinity of multivalent proteins to cell-expressed CTLA-4, CD28, and PD-L1 counter structures.

[2] = biological target: T1, human PD-L1; experiment: flow cytometry, SCC152 cells transduced with human PD-L1; MFI against WT CD80 ECD-Fc
Protocol: as §1, §2, §3

T1 sequence (Q9NZQ7 19-290): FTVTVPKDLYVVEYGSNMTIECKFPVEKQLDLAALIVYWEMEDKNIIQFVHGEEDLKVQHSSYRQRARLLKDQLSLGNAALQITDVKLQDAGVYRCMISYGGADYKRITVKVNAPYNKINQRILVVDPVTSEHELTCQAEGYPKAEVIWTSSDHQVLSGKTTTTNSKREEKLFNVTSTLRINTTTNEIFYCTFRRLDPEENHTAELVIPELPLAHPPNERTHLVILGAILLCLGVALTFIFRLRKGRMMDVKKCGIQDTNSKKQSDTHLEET

Anti-Human Fc (MFI) at 0.8 nM [1]: 4750 MFI | Anti-Human Fc (MFI) at 4 nM [1]: 6410 MFI | Anti-Human Fc (MFI) at 20 nM [1]: 7100 MFI | Anti-Human Fc (MFI) at 100 nM [1]: 7810 MFI | Fold change vs WT CD80 @20 nM [2]: 10.4 fold
B1: CD80-Fc-CD80_341 (CD80_197 V11Y/E35D/Y87Q/T101R) (Fc fusion)
chain: VIHVTKEVKEYATLSCGHNVSVEELAQTRIYWQKDKKMVLTMMSGDMNIWPEYKNRTIFDITNNLSIVILALRPSDEGTYECVVLKQEKDAFKREHLAEVRLSVKADGSGGGGSPCPPCPAPEFLGGPSVFLFPPKPKDTLMISRTPEVTCVVVDVSQEDPEVQFNWYVDGVEVHNAKTKPREEQFNSTYRVVSVLTVLHQDWLNGKEYKCKVSNKGLPSSIEKTISKAKGQPREPQVYTLPPSQEEMTKNQVSLTCLVKGFYPSDIAVEWESNGQPENNYKTTPPVLDSDGSFFLYSRLTVDKSRWQEGNVFSCSVMHEALHNHYTQKSLSLSLGGGGGSGGGGSGGGGSVIHVTKEVKEYATLSCGYNVSVEELAQTRIYWQKDKKMVLTMMSGDMNIWPEYKNRTIFDITNNLSIVILALRPSDEGTYECVVLKQEKDAFKREHLAEVRLSVKAD
notes: tetravalent
